How the values were obtained:
[1] = target: T1, hNotch2 (EGF6-13, residues 221-530), biotinylated (human, UniProt Q04721 221-530, Biotinylated in vitro by BirA at the C-terminal BAP-tag (tag not in the letters).); test: SPR (Biacore T200), biotinylated Notch fragment on streptavidin chip, DLL4 protein (N-EGF5) in flow, 1:1 model
T1 construct: Immobilised on a streptavidin chip for SPR
T1 sequence: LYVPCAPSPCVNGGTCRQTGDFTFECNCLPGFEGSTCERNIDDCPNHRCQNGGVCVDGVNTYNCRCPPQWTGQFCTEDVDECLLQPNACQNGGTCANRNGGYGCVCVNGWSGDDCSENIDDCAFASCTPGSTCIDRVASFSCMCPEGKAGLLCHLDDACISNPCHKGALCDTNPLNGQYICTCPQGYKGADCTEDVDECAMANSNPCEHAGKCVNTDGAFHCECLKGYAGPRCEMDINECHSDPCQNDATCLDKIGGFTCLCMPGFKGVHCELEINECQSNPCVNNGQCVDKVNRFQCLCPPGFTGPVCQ
Experimental: (§1) The rapid dissociation of WT DLL4 precluded kinetic fitting of the binding data.
(§2) Equilibrium dissociation constants were determined by surface plasmon resonance using a Biacore T200 instrument (GE Healthcare). Approximately 100 resonance units (RU) of biotinylated Notch extracellular fragments (Notch1 (EGF6-13), Notch2 (EGF6-13), Notch3 (EGF5-12), Notch4 (7-12), and mouse Notch1 (EGF6-13)) were immobilized on individual flow cells at 5 μl/min using a streptavidin-coated sensor chip (Series S Sensor chip SA, GE Healthcare). Three-fold serial dilutions of recombinant DLL4 proteins (N-EGF5) starting at 50 μM (WT DLL4), 18 μM (DLL4.v2), and 6 μM (DLL4.v1 and Delta^MAX) were flowed over the chip at 25° C. in SPR buffer (20 mM HEPES pH 7.4, 150 mM NaCl, 1 mM calcium chloride, 0.1% BSA supplemented with 0.005% surfactant P20). Association (“on-rate”) and dissociation (“off-rate”) phases were performed at 10 μl/min for 120 seconds and 300 seconds, respectively. […] Data collection rate was performed at 10 Hz, and curves were reference-subtracted from a flow cell containing 100 RU of a negative control non-related protein (biotinylated mouse RNF43 PA domain). The maximum RU for each experiment was normalized to a value of 100% and plotted as a function of concentration using Prism 9 software (GraphPad). Steady-state binding and kinetic curves were fitted using the Biacore T200 evaluation software to a 1:1 Langmuir model to determine the KD values.

[2] = target: T2, hNotch4 (EGF7-12, residues 276-511), biotinylated (human, UniProt Q99466 276-511, Biotinylated in vitro by BirA at the C-terminal BAP-tag (tag not in the letters).); test: as above
T2 construct: Immobilised on a streptavidin chip for SPR; also called Notch4 (7-12)
T2 sequence: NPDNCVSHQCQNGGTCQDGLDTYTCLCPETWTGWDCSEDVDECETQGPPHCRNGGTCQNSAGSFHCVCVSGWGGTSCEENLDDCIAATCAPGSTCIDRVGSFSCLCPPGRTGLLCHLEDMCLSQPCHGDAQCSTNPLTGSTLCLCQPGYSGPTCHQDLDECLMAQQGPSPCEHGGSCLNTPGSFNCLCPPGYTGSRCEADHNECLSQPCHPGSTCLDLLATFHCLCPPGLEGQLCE
Experimental: as §1, §2

[3] = target: T3, hNotch3 (EGF5-12, residues 197-505), biotinylated (human, UniProt Q9UM47 197-505, Biotinylated in vitro by BirA at the C-terminal BAP-tag (tag not in the letters).); test: as above
T3 construct: Immobilised on a streptavidin chip for SPR
T3 sequence: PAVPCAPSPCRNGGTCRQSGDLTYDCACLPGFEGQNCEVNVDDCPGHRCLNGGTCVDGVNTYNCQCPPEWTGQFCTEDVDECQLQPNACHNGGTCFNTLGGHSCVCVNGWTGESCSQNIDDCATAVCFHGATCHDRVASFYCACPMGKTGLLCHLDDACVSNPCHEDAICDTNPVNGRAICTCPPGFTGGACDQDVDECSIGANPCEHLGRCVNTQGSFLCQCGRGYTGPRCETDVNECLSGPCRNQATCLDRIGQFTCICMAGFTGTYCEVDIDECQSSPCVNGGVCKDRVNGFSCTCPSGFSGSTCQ
Experimental: as §1, §2

[4] = target: T2, hNotch4 (EGF7-12, residues 276-511), …; test: SPR, KD of Delta^MAX against KD of WT DLL4
Experimental: Surface plasmon resonance (SPR) was used to determine the binding affinity between Delta^MAX and the ligand-binding regions of Notch1-4. As a basis for comparison, a WT DLL4 construct, a DLL4.v2 construct, and a “DLL4.v1” construct containing the five E12 mutations (G28S, F107L, N118I, H194Y, and L206P) were also generated (FIG. 2A, 10). […] The rapid dissociation of WT DLL4 precluded kinetic fitting of the binding data.
Equilibrium dissociation constants were determined by surface plasmon resonance using a Biacore T200 instrument (GE Healthcare). Approximately 100 resonance units (RU) of biotinylated Notch extracellular fragments (Notch1 (EGF6-13), Notch2 (EGF6-13), Notch3 (EGF5-12), Notch4 (7-12), and mouse Notch1 (EGF6-13)) were immobilized on individual flow cells at 5 μl/min using a streptavidin-coated sensor chip (Series S Sensor chip SA, GE Healthcare). Three-fold serial dilutions of recombinant DLL4 proteins (N-EGF5) starting at 50 μM (WT DLL4), 18 μM (DLL4.v2), and 6 μM (DLL4.v1 and Delta^MAX) were flowed over the chip at 25° C. in SPR buffer (20 mM HEPES pH 7.4, 150 mM NaCl, 1 mM calcium chloride, 0.1% BSA supplemented with 0.005% surfactant P20). Association (“on-rate”) and dissociation (“off-rate”) phases were performed at 10 μl/min for 120 seconds and 300 seconds, respectively. […] Data collection rate was performed at 10 Hz, and curves were reference-subtracted from a flow cell containing 100 RU of a negative control non-related protein (biotinylated mouse RNF43 PA domain).

B1: Delta^MAX (N-EGF5), non-biotinylated (ligand)
chain: SSVFQLQLQEFINERGVLASGRPCEPGCRTFFRVCLKHFQAVVSPGPCTFGTVSTPVLGTNSFAVRDDSSGGGRNPLQLPLNFTWPGTFSLIIEAWHAPGDDLRPEALPPDALISKFAIQGSLAVGQNWLLDEQTSTLTRLRYSYRVICSDNYYGDNCSRLCKKRNDYFGHYVCQPDGNPSCLPGWTGEYCQQPICLSGCHEQNGYCSKPAECLCRPGWQGRLCNECIPHPGCRHGTCSTPWQCLCDEGWGGLYCDQDLNYCTHHSPCKNGATCRNSGPRSYTCTCRPGYTGVDCELELSECDSNPCRNGGSCKDQEDGYHCLCPPGYYGLHCEHSTLSCADSPCFNGGSCRERNQGANYACECPPNFTGSNCEHHHHHHHH
notes: also called DLL4^MAX; soluble Delta^MAX
Kd [1]: 54 nM
Kd [2]: 24 nM
Kd [3]: 49 nM
fold enhancement of affinity compared to WT DLL4 [4]: 532 fold

From patent publication US20260055369A1 (H LEE MOFFITT CANCER CENTER AND RESEARCH INSTITUTE, published 2026)
